US20040115215A1

What was measured:
[1] = molecular target: Crotalus durissus terrificus venom; assay: ELISA, C.d.t. venom-coated; undiluted
[2] = molecular target: Crotalus durissus terrificus venom; assay: ELISA, C.d.t. venom-coated; dilution 1:5
[3] = molecular target: Crotalus durissus terrificus venom; assay: ELISA, C.d.t. venom-coated; dilution 1:25
[4] = molecular target: Crotalus durissus terrificus venom; assay: ELISA, C.d.t. venom-coated; dilution 1:25; remark: listed apart in the source
[5] = molecular target: Crotalus durissus terrificus venom; assay: ELISA, C.d.t. venom-coated; dilution 1:500
[6] = molecular target: Crotalus durissus terrificus venom; assay: ELISA, C.d.t. venom-coated; dilution 1:125
[7] = molecular target: Crotalus durissus terrificus venom; assay: ELISA, C.d.t. venom-coated; dilution 1:625
[8] = molecular target: Crotalus durissus terrificus venom; assay: ELISA, C.d.t. venom-coated; dilution 1:125; remark: listed apart in the source
[9] = molecular target: Crotalus durissus terrificus venom; assay: ELISA, C.d.t. venom-coated; dilution 1:625; remark: listed apart in the source
[10] = molecular target: Crotalus durissus terrificus venom; assay: ELISA, C.d.t. venom-coated; dilution 1:3125
[11] = molecular target: Crotalus durissus terrificus venom; assay: ELISA, C.d.t. venom-coated; dilution 1:3125; remark: listed apart in the source
[12] = molecular target: Crotalus durissus terrificus venom; assay: ELISA, C.d.t. venom-coated; dilution 1:2,500
[13] = molecular target: Crotalus durissus terrificus venom; assay: ELISA, C.d.t. venom-coated; dilution 1:12,500
[14] = molecular target: Crotalus durissus terrificus venom; assay: ELISA, C.d.t. venom-coated; dilution 1:62,500
[15] = molecular target: Crotalus durissus terrificus venom; assay: ELISA, C.d.t. venom-coated; dilution 1:312,500

preimmune IgY (from unimmunized hens or supermarket eggs) (antibody)
absorbance [1]: 0.003 OD
absorbance [2]: < 0 OD
absorbance [3]: 0.016 OD
absorbance [4]: 0 OD
absorbance (412 nm filter) [5]: 0.005 OD
absorbance [6]: < 0 OD
absorbance [7]: < 0 OD
absorbance [8]: 0.003 OD
absorbance [9]: 0 OD
absorbance [10]: < 0 OD
absorbance [11]: 0.002 OD
absorbance (412 nm filter) [12]: 0.004 OD
absorbance (412 nm filter) [13]: 0.001 OD
absorbance (412 nm filter) [14]: 0.001 OD
absorbance (412 nm filter) [15]: 0.01 OD
